Experimental findings from PMC11093223, “Cargo selective vesicle tethering: The structural basis for binding of specific cargo proteins by the Golgi tether component TBC1D23” (Science Advances, 2024) are described below.

Common to all, as to details: both partners purified
Assay [1] concerns the target T1, TBC1D23 C-terminal domain K672A (mouse, UniProt Q8K0F1 559-677, K672A).
T1 construct: TBC1D23, mouse, UniProt Q8K0F1, C-terminal domain (limits as m7, in data S3); source: E. coli BL21 plyS, purified (glutathione-Sepharose, GST cleaved with thrombin, Superdex 200)
The experiment in a line: ITC; peptide (0.8 to 5 mM) titrated into 100 μM TBC1D23 C-terminal domain, 20°C, 100 mM NaCl, 100 mM tris pH 7.4, 1 mM TCEP, Nano ITC. Background: In ITC the heat of successive injections is recorded.

In assay [2] the target is T2, TBC1D23 C-terminal domain I675W (mouse, UniProt Q8K0F1 559-677, I675W).
T2 construct: TBC1D23, mouse, UniProt Q8K0F1, C-terminal domain (limits as m7, in data S3); source: E. coli BL21 plyS, purified (glutathione-Sepharose, GST cleaved with thrombin, Superdex 200)
Described as above.

The target in assay [3] is T3, TBC1D23 C-terminal domain (mouse, UniProt Q8K0F1 559-684).
T3 construct: TBC1D23, mouse, UniProt Q8K0F1, C-terminal domain ending with VLDALES at residue 684; used for ITC and for the 3.3 Å crystals; also called the C-terminal domain; TBC1D23 full-length C-terminal domain; source: E. coli BL21 plyS, purified (glutathione-Sepharose, GST cleaved with thrombin, Superdex 200)
The assay is described as above.

Assay [4] deals with T4, Mouse TBC1D23 (559-684), C-terminal domain (mouse, UniProt Q8K0F1 559-684).
T4 construct: TBC1D23, mouse, UniProt Q8K0F1 (684 residues), C-terminal domain, residues 559-684; also called TBC1D23 C-terminal domain; TBC1D23 full length C-terminal domain; source: E. coli BL21 plyS, purified (glutathione-Sepharose, thrombin cleavage, Superdex 200 gel filtration)
The experiment in a line: ITC; peptide (0.8 to 5 mM) titrated into 100 uM TBC1D23 C-terminal domain, 20 injections of 2.4 ul; 20°C; 100 mM NaCl, 100 mM tris pH 7.4, 1 mM TCEP; mean of three runs.

T4 sequence (Q8K0F1 559-684): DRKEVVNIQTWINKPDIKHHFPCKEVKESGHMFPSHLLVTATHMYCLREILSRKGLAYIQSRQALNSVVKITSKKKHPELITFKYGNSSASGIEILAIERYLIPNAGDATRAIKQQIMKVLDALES
T3 sequence (Q8K0F1 559-684): as above
T2 sequence (Q8K0F1 559-677 I675W): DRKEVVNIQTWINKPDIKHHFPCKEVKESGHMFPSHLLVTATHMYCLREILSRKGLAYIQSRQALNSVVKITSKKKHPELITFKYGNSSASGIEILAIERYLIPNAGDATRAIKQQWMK
T1 sequence (Q8K0F1 559-677 K672A): as the sequence (Q8K0F1 559-677 I675W) above, with K114A, W117I counted along it

B1: syntaxin-16 (209–221) peptide (peptide, UniProt O14662 209-221, looked up)
peptide: DDNTLYHRGFTED
notes: syntaxin-16, human, residues 209 to 221, beginning 209DDNTLY (T212, L213, Y214, R216); also called syntaxin-16 peptide; wild type; source: peptide
One may read the Kd as the free concentration of one partner at which half of the binding sites on the other are occupied at equilibrium, for simple one-to-one binding. A higher Kd goes with a looser complex. As usually defined, the stoichiometry N is the number of molecules, sites or subunits per partner or assembly. On to B1, for which the dissociation constant Kd in assay [1] was approximately 30 µM; in assay [2], more than 300 µM; in assay [3] it was approximately 1.4 µM. The “stoichiometry N” value in assay [3] was determined as 1.

B2: syntaxin-16 peptide Y214W (peptide, UniProt O14662 209-221, looked up)
peptide: DDNTLWHRGFTED
notes: syntaxin-16, human, peptide 209 to 221 as m28; source: peptide
On to B2, for which the Kd in assay [3] is approximately 7 µM.

B3: syntaxin-16 peptide T212S (peptide, UniProt O14662 209-221, looked up)
peptide: DDNSLYHRGFTED
notes: as for B2
As for B3, in assay [3], the Kd is approximately 30 µM.

B4: syntaxin-16 peptide Y214F (peptide, UniProt O14662 209-221, looked up)
peptide: DDNTLFHRGFTED
notes: as for B2
The molecule B4 came in with a Kd in assay [3] of approximately 15 µM.

B5: syntaxin-16 peptide L213A (peptide)
peptide: DDNTAYHRGFTED
notes: syntaxin-16, human, residues 209-221 with L213A
In assay [4], B5 showed a Kd of more than 200 µM.

B6: syntaxin-16 peptide T212S (peptide)
peptide: DDNSLYHRGFTED
notes: syntaxin-16, human, residues 209-221 with T212S
Turning to B6, the affinity in assay [4], expressed as Kd, was 30.1 µM.

B7: syntaxin-16 peptide Y214W (peptide)
peptide: DDNTLWHRGFTED
notes: syntaxin-16, human, residues 209-221 with Y214W
Molecule B7 came in with a Kd in assay [4] of 5.6 µM.

B8: syntaxin-16 peptide Y214F (peptide)
peptide: DDNTLFHRGFTED
notes: syntaxin-16, human, residues 209-221 with Y214F
As for B8, in assay [4], the Kd worked out at 15.5 µM.

B9: syntaxin-16 peptide L213F (peptide)
peptide: DDNTFYHRGFTED
notes: syntaxin-16, human, residues 209-221 with L213F
In turn, B9 came in with a Kd in assay [4] of 150 µM.
